# Experimental data taken from article PMC5568139, “Variants of sequence family B Thermococcus kodakaraensis DNA polymerase with increased mismatch extension selectivity” (PLoS ONE, 2017).
# Substrate: Nc1nc2c(ncn2[C@H]2C[C@H](O)[C@@H](COP(=O)(O)OP(=O)(O)OP(=O)(O)O)O2)c(=O)[nH]1
# Assay: purified protein
# Assay type: biochemical, Thermococcus kodakarensis
# Details: matched primer-template C-G (prothrombin factor II), Tris-HCl pH 8, 1.5 mM MgCl2, temperature not stated for kinetics (55 °C in primer extension assay)
Protein,Km [µM],kcat [s⁻¹],kcat/Km [M⁻¹ s⁻¹]
"KOD pol wildtype (3'-5'-exonuclease deficient Thermococcus kodakaraensis DNA polymerase) (Thermococcus kodakarensis KOD1; D141A/E143A) (protein, mature intein-free polymerase expected (precursor holds two inteins); pET21a, E. coli BL21(DE3), Ni resin) chain 1: MILDTDYITEDGKPVIRIFKKENGEFKIEYDRTFEPYFYALLKDDSAIEEVKKITAERHGTVVTVKRVEKVQKKFLGRPVEVWKLYFTHPQDVPAIRDKIREHPAVIDIYEYDIPFAKRYLIDKGLVPMEGDEELKMLAFAIATLYHEGEEFAEGPILMISYADEEGARVITWKNVDLPYVDVVSTEREMIKRFLRVVKEKDPDVLITYNGDNFDFAYLKKRCEKLGINFALGRDGSEPKIQRMGDRFAVEVKGRIHFDLYPVIRRTINLPTYTLEAVYEAVFGQPKEKVYAEEITTAWETGENLERVARYSMEDAKVTYELGKEFLPMEAQLSRLIGQSLWDVSRSSTGNLVEWFLLRKAYERNELAPNKPDEKELARRRQSYEGGYVKEPERGLWENIVYLDFR chain 2: SLYPSIIITHNVSPDTLNREGCKEYDVAPQVGHRFCKDFPGFIPSLLGDLLEERQKIKKKMKATIDPIERKLLDYRQRAIKILAN chain 3: SYYGYYGYARARWYCKECAESVTAWGREYITMTIKEIEEKYGFKVIYSDTDGFFATIPGADAETVKKKAMEFLKYINAKLPGALELEYEGFYKRGFFVTKKKYAVIDEEGKITTRGLEIVRRDWSEIAKETQARVLEALLKDGDVEKAVRIVKEVTEKLSKYEVPPEKLVIHEQITRDLKDYKATGPHVAVAKRLAARGVKIRPGTVISYIVLKGSGRIGDRAIPFDEFDPTKHKYDAEYYIENQVLPAVERILRAFGYRKEDLRYQKTRQVGLSAWLKPKGT",0.168 ± 0.04,0.81 ± 0.12,4.8e+06 ± 1.9e+06
"KOD pol wildtype (3'-5'-exonuclease deficient Thermococcus kodakaraensis DNA polymerase) (Thermococcus kodakarensis KOD1; D141A/E143A/R1398C) (protein, mature intein-free polymerase expected (precursor holds two inteins); pET21a, E. coli BL21(DE3), Ni resin) chain 1: MILDTDYITEDGKPVIRIFKKENGEFKIEYDRTFEPYFYALLKDDSAIEEVKKITAERHGTVVTVKRVEKVQKKFLGRPVEVWKLYFTHPQDVPAIRDKIREHPAVIDIYEYDIPFAKRYLIDKGLVPMEGDEELKMLAFAIATLYHEGEEFAEGPILMISYADEEGARVITWKNVDLPYVDVVSTEREMIKRFLRVVKEKDPDVLITYNGDNFDFAYLKKRCEKLGINFALGRDGSEPKIQRMGDRFAVEVKGRIHFDLYPVIRRTINLPTYTLEAVYEAVFGQPKEKVYAEEITTAWETGENLERVARYSMEDAKVTYELGKEFLPMEAQLSRLIGQSLWDVSRSSTGNLVEWFLLRKAYERNELAPNKPDEKELARRRQSYEGGYVKEPERGLWENIVYLDFR chain 2: SLYPSIIITHNVSPDTLNREGCKEYDVAPQVGHRFCKDFPGFIPSLLGDLLEERQKIKKKMKATIDPIERKLLDYRQRAIKILAN chain 3: SYYGYYGYACARWYCKECAESVTAWGREYITMTIKEIEEKYGFKVIYSDTDGFFATIPGADAETVKKKAMEFLKYINAKLPGALELEYEGFYKRGFFVTKKKYAVIDEEGKITTRGLEIVRRDWSEIAKETQARVLEALLKDGDVEKAVRIVKEVTEKLSKYEVPPEKLVIHEQITRDLKDYKATGPHVAVAKRLAARGVKIRPGTVISYIVLKGSGRIGDRAIPFDEFDPTKHKYDAEYYIENQVLPAVERILRAFGYRKEDLRYQKTRQVGLSAWLKPKGT",96 ± 21,8.3 ± 0.6,90000 ± 20000
